Test results reported in the MegaScale stability set (Tsuboyama et al. 2023).

B1: 2M8U (parent)
chain: TKAQVIEAFKVFDRDGNGYVTVDYLRKVLNELGDMMPADEIEEMIYEADPQNSGYVQYETFVGMLFL

Variants of: B1
Test: folding stability dG (cDNA display proteolysis); higher = more stable
Conditions: PBS, room temperature

| Variant | folding stability dG |
| --- | --- |
| N30C | 3.37 kcal/mol |
| N30Y | 3.57 kcal/mol |
| F12C | 3.15 kcal/mol |
| F12G | 3.5 kcal/mol |
| F12R | 2.48 kcal/mol |
| F12P | 1.89 kcal/mol |
| F12H | 3.24 kcal/mol |
| M36C | 3.44 kcal/mol |
| F9L | 4.1 kcal/mol |
| F9T | 2.47 kcal/mol |
| F9Y | 2.1 kcal/mol |
| T21W | 3.22 kcal/mol |
| T21S | 3.64 kcal/mol |
| T21G | 3.51 kcal/mol |
| T21V | 3.05 kcal/mol |
| T21M | 3.4 kcal/mol |
| K27M | 3.55 kcal/mol |
| K27L | 3.72 kcal/mol |
| K27Q | 3.53 kcal/mol |
| I41W | 3.72 kcal/mol |
| I41E | 2.29 kcal/mol |
| I41R | 3.03 kcal/mol |
| I41Q | 2.78 kcal/mol |
| I41C | 2.87 kcal/mol |

| Variant | folding stability dG |
| --- | --- |
| I41D | 1.96 kcal/mol |
| L29A | 2.57 kcal/mol |
| L29F | 3.2 kcal/mol |
| L29E | 1.12 kcal/mol |
| L29G | 1.58 kcal/mol |
| P37G | 3.36 kcal/mol |
| P37L | 3.45 kcal/mol |
| P37W | 3.79 kcal/mol |
| P37D | 3.26 kcal/mol |
| A8M | 3.76 kcal/mol |
| A8T | 2.67 kcal/mol |
| A8Y | 3.17 kcal/mol |
| A8G | 2.64 kcal/mol |
| I6T | 2.72 kcal/mol |
| I6F | 2.6 kcal/mol |
| I6N | 2.55 kcal/mol |
| I6L | 3.66 kcal/mol |
| I6S | 2.25 kcal/mol |
| S53V | 3.15 kcal/mol |
| S53G | 2.94 kcal/mol |
| S53R | 3.35 kcal/mol |
| S53K | 3.39 kcal/mol |
| S53F | 3.16 kcal/mol |
| G16K | 3.04 kcal/mol |

| Variant | folding stability dG |
| --- | --- |
| G16M | 3.04 kcal/mol |
| G16Q | 3.25 kcal/mol |
| V62A | 3.15 kcal/mol |
| V62K | 1.97 kcal/mol |
| V62W | 2.11 kcal/mol |
| F61Y | 2.17 kcal/mol |
| F61I | 3.6 kcal/mol |
| A48L | 3.45 kcal/mol |
| A48N | 3.44 kcal/mol |
| A48G | 2.64 kcal/mol |
| Q51E | 3.48 kcal/mol |
| Q51G | 3.43 kcal/mol |
| Q51M | 3.49 kcal/mol |
| Q51Y | 3.62 kcal/mol |
| Q51K | 3.45 kcal/mol |
| V22H | 3.5 kcal/mol |
| G54C | 2.59 kcal/mol |
| G54D | 2.06 kcal/mol |
| G54H | 2.49 kcal/mol |
| G54N | 2.9 kcal/mol |
| G54L | 2.48 kcal/mol |
| E42D | 3.37 kcal/mol |
| E42I | 3.25 kcal/mol |
| E42F | 3.06 kcal/mol |

| Variant | folding stability dG |
| --- | --- |
| E42K | 3.22 kcal/mol |
| E42R | 3.14 kcal/mol |
| E42V | 3.01 kcal/mol |
| A38G | 3.41 kcal/mol |
| A38V | 3.61 kcal/mol |
| A38C | 3.52 kcal/mol |
| A38S | 3.56 kcal/mol |
| A38P | 3.47 kcal/mol |
| A38R | 3.62 kcal/mol |
| D15K | 2.32 kcal/mol |
| D15T | 2.97 kcal/mol |
| D15P | 2.51 kcal/mol |
| D49H | 2.3 kcal/mol |
| D49R | 2.21 kcal/mol |
| D49G | 2.36 kcal/mol |
| V5P | 1.77 kcal/mol |
| V5D | 1.89 kcal/mol |
| V5E | 1.95 kcal/mol |
| Y58N | 1.27 kcal/mol |
| Y58A | 2.11 kcal/mol |
| Y58Q | 1.77 kcal/mol |
| Y58G | 1.62 kcal/mol |
| L67G | 3.49 kcal/mol |
| L67Q | 3.8 kcal/mol |

| Variant | folding stability dG |
| --- | --- |
| L67T | 3.3 kcal/mol |
| L67I | 3.3 kcal/mol |
| L67W | 3.08 kcal/mol |
| L67D | 4.28 kcal/mol |
| L67Y | 3.08 kcal/mol |
| L67K | 3.57 kcal/mol |
| G18N | 2.23 kcal/mol |
| G18R | 2.06 kcal/mol |
| G18S | 2.42 kcal/mol |
| G18K | 2.53 kcal/mol |
| G18V | 2.61 kcal/mol |
| L65V | 2.72 kcal/mol |
| L65N | 2.26 kcal/mol |
| L65Q | 1.84 kcal/mol |
| L65M | 3.67 kcal/mol |
| L65R | 2.22 kcal/mol |
| L65T | 1.96 kcal/mol |
| D23K | 3.64 kcal/mol |
| D23E | 3.74 kcal/mol |
| D23I | 3.63 kcal/mol |
| D23C | 3.67 kcal/mol |
| D34R | 3.51 kcal/mol |
| D34F | 4.68 kcal/mol |
| G63L | 3.36 kcal/mol |

| Variant | folding stability dG |
| --- | --- |
| G63P | 2.16 kcal/mol |
| G63D | 4.19 kcal/mol |
| Y19P | 1.9 kcal/mol |
| Y19H | 2.94 kcal/mol |
| Y19R | 2.76 kcal/mol |
| K10C | 3.51 kcal/mol |
| Q4W | 3.08 kcal/mol |
| Q4V | 3.02 kcal/mol |
| Q4N | 3.09 kcal/mol |
| Q4L | 3.21 kcal/mol |
| Q4G | 2.99 kcal/mol |
| T1Q | 3.13 kcal/mol |
| T1D | 2.96 kcal/mol |
| T1L | 3.3 kcal/mol |
| T1E | 2.94 kcal/mol |
| T1M | 3.21 kcal/mol |
| T1G | 2.88 kcal/mol |
| T1C | 3.76 kcal/mol |
| M64D | 3.23 kcal/mol |
| M64L | 3.74 kcal/mol |
| M64P | 2.66 kcal/mol |
| M64R | 4.29 kcal/mol |
| M64K | 4.14 kcal/mol |
| M64N | 3.83 kcal/mol |

| Variant | folding stability dG |
| --- | --- |
| E31Y | 3.4 kcal/mol |
| Y55Q | 3.48 kcal/mol |
| Y55A | 2.82 kcal/mol |
| R26G | 1.92 kcal/mol |
| R26I | 3.22 kcal/mol |
| R26N | 2.59 kcal/mol |
| R26V | 3.11 kcal/mol |
| M44R | 3.66 kcal/mol |
| M44H | 3.52 kcal/mol |
| M44Q | 2.95 kcal/mol |
| M44F | 3.09 kcal/mol |
| M44I | 3.05 kcal/mol |
| Q57V | 3.1 kcal/mol |
| Q57I | 2.96 kcal/mol |
| Q57G | 2.69 kcal/mol |
| V11Y | 3.07 kcal/mol |
| V11G | 3.28 kcal/mol |
| V11N | 3.51 kcal/mol |
| D13P | 1.49 kcal/mol |
| D13W | 2.7 kcal/mol |
| D13R | 1.21 kcal/mol |
| D13N | 1.76 kcal/mol |
| D13M | 2.39 kcal/mol |
